# Reference: patent publication US20250242041A1 (Seagen, published 2025)
# Biological target: T1, human αvβ6 on 293F:huβ6 cells (human, UniProt P06756 31-1048; P18564 22-788)
# T1 construct: whole, on cells; also called HEK293F:huβ6
# Test: saturation binding by flow cytometry on 293F:huβ6 cells; also confirmed by competition binding
# Description: 0.1×10⁶ antigen expressing cells were aliquoted in each well of a 96-well v-bottom plate on ice. The cells were incubated for 1 hour with 2 nM AlexaFluor-647 labeled humanized 2A2 HCLG and increasing concentrations (from 4 pM-1 uM) of unlabeled humanized 2A2 HCLG antibody and h2A2-Mdpr-PEG(12)-gluc-MMAE(8) in buffer (Tris-buffered saline, 2% fetal bovine serum, 0.5 mM MnCl₂, 0.02% NaN₃). Cells were pelleted and washed 3 times with TBS/FBS. The cells were pelleted and resuspended in 125 uL of TBS/FBS. Fluorescent signal of binding was detected using a Becton Dickinson Biosciences LSR II (San Jose, CA). Percent of saturated fluorescent signal was used to determine percent labeled humanized 2A2 antibody bound to cells and to subsequently extrapolate the EC50 by fitting the data to a sigmoidal dose-response curve with variable slope using GraphPad Software (LaJolla, CA).
# 0.1×10⁶ antigen expressing cells were aliquoted per well into a 96-well v-bottom plate. m2A2 and h2A2 HCLG were directly labeled with AlexaFluor-647 and added to cells at concentrations ranging from 6 pM-340 nM in buffer (Tris-buffered saline, 2% fetal bovine serum, 0.5 mM MnCl₂, 0.02% NaN₃). […] Fluorescent signal of binding was detected using a Becton Dickinson Biosciences LSR II (San Jose, CA). The EC50 was calculated using GraphPad Software (LaJolla, CA).
# T1 sequence (P06756 31-1048, chain 1 of 2): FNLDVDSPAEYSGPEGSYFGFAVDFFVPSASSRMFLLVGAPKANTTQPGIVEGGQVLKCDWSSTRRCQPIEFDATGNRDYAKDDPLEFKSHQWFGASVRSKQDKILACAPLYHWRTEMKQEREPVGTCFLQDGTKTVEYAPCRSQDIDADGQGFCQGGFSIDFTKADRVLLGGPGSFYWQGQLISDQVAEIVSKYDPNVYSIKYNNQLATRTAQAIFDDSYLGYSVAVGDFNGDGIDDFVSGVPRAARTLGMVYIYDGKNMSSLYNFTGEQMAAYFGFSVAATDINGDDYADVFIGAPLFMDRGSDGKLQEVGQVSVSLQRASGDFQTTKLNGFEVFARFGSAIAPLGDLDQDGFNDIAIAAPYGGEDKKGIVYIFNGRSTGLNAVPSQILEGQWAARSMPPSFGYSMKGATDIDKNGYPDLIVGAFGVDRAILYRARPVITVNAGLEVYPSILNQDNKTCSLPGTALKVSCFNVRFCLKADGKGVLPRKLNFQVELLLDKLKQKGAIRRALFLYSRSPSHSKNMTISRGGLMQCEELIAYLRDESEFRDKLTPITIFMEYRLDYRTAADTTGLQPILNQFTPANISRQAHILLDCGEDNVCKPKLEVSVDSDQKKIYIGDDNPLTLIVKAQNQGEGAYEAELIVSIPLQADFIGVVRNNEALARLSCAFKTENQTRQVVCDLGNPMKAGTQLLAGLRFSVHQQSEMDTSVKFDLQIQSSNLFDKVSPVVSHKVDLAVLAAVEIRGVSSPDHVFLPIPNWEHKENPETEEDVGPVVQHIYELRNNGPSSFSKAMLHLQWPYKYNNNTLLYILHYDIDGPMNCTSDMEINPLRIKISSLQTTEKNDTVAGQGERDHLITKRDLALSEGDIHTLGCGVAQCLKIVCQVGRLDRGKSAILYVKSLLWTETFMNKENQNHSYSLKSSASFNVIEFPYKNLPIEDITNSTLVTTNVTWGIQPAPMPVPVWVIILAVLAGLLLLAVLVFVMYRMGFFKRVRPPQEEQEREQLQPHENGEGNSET
# T1 sequence (P18564 22-788, chain 2 of 2): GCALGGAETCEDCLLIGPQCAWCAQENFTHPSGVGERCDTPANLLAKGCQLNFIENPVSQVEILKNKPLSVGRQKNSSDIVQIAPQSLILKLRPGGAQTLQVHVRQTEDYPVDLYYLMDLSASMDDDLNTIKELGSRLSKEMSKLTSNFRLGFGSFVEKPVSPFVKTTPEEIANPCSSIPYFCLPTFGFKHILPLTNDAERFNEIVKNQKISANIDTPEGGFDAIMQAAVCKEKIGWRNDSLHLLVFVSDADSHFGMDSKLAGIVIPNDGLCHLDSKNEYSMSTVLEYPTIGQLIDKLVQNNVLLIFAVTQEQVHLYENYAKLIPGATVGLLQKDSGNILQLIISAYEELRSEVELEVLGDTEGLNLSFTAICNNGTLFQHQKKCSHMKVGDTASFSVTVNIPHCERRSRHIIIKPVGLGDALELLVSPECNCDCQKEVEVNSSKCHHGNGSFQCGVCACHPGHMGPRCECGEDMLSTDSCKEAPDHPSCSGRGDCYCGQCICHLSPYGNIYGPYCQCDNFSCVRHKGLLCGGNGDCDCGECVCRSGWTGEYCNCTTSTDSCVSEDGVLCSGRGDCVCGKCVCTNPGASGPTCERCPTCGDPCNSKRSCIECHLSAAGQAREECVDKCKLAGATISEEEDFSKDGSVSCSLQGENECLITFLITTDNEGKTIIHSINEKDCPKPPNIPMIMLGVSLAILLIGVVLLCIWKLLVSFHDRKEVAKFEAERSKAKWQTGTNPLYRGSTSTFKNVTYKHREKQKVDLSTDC
binder,measurement,value
"h2A2 HCLG humanized antibody (antibody, human IgG1, kappa, V domains shown, Labelled with AlexaFluor-647 in the saturation assay; also called humanized 2A2 HCLG) VH: QFQLVQSGAEVKKPGASVKVSCKASGYSFTDYNVNWVRQAPGQGLEWIGVINPKYGTTRYNQKFKGRATLTVDKSTSTAYMELSSLRSEDTAVYYCTRGLNAWDYWGQGTLVTVSS VL: DIQMTQSPSSLSASVGDRVTITCGASENIYGALNWYQQKPGKAPKLLIYGATNLEDGVPSRFSGSGSGRDYTFTISSLQPEDIATYYCQNVLTTPYTFGQGTKLEIKR",binding result,binds
